Assay results reported in patent US20170088616A1 (Kyowa Kirin, published 2017).
Values belong to the binder of their own block, whether it stands above or below them.

Legend:
[1] = target: T1, Mucin chimeraTIM-3 (human TIM-3 with the mucin domain substituted for mouse TIM-3) (human/mouse chimera); test: flow cytometry, transfected HEK293F cells
T1 construct: expressed on HEK293F cells

human TIM-3 [2] = target: T2, human TIM-3 (human, UniProt Q8TDQ0 22-301); test: flow cytometry, Alexa-647 labeled antibody on human TIM-3 EoL-1 cells pre-bound with 10 ug/ml unlabeled competitor: 644
T2 construct: endogenous on Daudi cells in the ADCC test; also called HAVCR2; hTIM-3

human TIM-3 [3] = target: T2, human TIM-3; test: flow cytometry, Alexa-647 labeled antibody on human TIM-3 EoL-1 cells pre-bound with 10 ug/ml unlabeled competitor: anti-DNP (negative control)

binding result [1]: binds | binding result (human TIM-3 [2]): binds
B1: antibody 512 (antibody, V domains shown)
VH: QVQLVESGGGVVQPGRSLRLSCAASGFTFNSYGMHWVRQAPGKGLEWVAVIWYDGSNKYYGDSVKGRFTISRDNSKNTLYLQMNSLRAEDTAVYYCAIWFGEMFSEYFQHWGQGTLVTVSS
VL: AIQLTQSPSSLSASVGDRVTITCRASQGISSALAWYQQKPGKAPKLLIYDASSLESGVPSRFSGSGSGTDFTLTISSLQPEDFATYYCQQFNSYPLTFGGGTKVEIKR
notes: Hybridoma isotype IgG1; recombinant form has human IgG1 constant region and kappa chain, made in FUT8-/- CHO cells (defucosylated)

binding result [1]: binds | binding result (human TIM-3 [3]): binds
B2: antibody 4545 (antibody, V domains shown)
VH: QVQLQESGPGLVKPSETLSLTCTVSGGSFSRGGYYWNWIRQPPGKGLEWIGYIYYSGSTNYNPSLKSRVTISLDTSKNQFSLKLSSVTAADTAVYYCARDHYSSSWTFDYWGQGTLVTVSS
VL: EIVLTQSPATLSLSPGERATLSCRASQSVSSYLAWYQQKPGQAPRLLIYDASNRATGIPARFSGSGSGTDFTLTISSLEPEDFAVYYCQQRSNWPPTFGQGTKLEIK
notes: Hybridoma isotype IgG2; recombinant form has human IgG1 constant region and kappa chain, made in FUT8-/- CHO cells (defucosylated)

binding result [1]: binds | binding result (human TIM-3 [3]): binds
B3: antibody 644 (antibody, V domains shown)
VH: QVQLVESGGGLVKPGGSLRLSCAASGFTFSDYYMSWIRQAPGKGLEWVSFISSSGSIIYYADSVKGRFTISRDNAKNSLYLQMNSLRAEDTAVYYCARDGYSSSWYYYGMDVWGQGTTVTVSS
VL: not shown
notes: Hybridoma isotype IgG4; recombinant form has human IgG1 constant region and kappa chain, made in FUT8-/- CHO cells (defucosylated)

binding result [1]: binds | binding result (human TIM-3 [3]): binds
B4: antibody 8213 (antibody, V domains shown)
VH: QVQLQQPGAELVKPGASVKLSCKASGYTFTSYWMHWVKQRPGQGLEWIGEINPSNGRTNYNEKFKTKATLTVDKSSSTAYMQLSSLTSEDSAVYYCAGGYYLYFDYWGQGTTLTVSS
VL: DILMTQSPSSMSVSLGDTVNITCHASQGIRINIGWLQQKPGKSFKGLIYHGTNLEDGVPSRFSGSGSGPDYSLTISSLESEDFADYYCVQYGQFPWTFGGGTKLEMK
notes: Hybridoma isotype mouse IgG2b; recombinant form has mouse IgG2a constant region and kappa chain, made in HEK293F cells
